Test results reported in the supplement of paper PMC9112550, “Optimization of the antimicrobial peptide Bac7 by deep mutational scanning” (BMC Biology, 2022).

Tested on: Escherichia coli TOP10
Test: shrunken log2 fold change of peptide-encoding DNA abundance (4.5 h post-induction vs induction); higher = less antimicrobial activity (less host growth inhibition)
Settings: time post-induction: 4.5 h; library: site-saturation at positions 5, 18, 19, 20
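Also: peptides expressed intracellularly from a pBAD plasmid library in pooled LB shake-flask culture, induced with 0.3% L-arabinose, DNA abundance read by NGS, three biological replicates, DESeq2 with apeglm shrinkage.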

| Sequence | shrunken log2 fold change |
| --- | --- |
| RRIRYRPPRLPRPRPRPRWQPRP | 0.033 |
| RRIRTRPPRLPRPRPRPFVDPRP | -0.0538 |
| RRIRKRPPRLPRPRPRPGAWPRP | 0.364 |
| RRIRERPPRLPRPRPRPFDRPRP | -0.0163 |
| RRIRNRPPRLPRPRPRPYQMPRP | -0.246 |
| RRIRFRPPRLPRPRPRPVGRPRP | 0.382 |
| RRIRARPPRLPRPRPRPYPPPRP | -0.129 |
| RRIRKRPPRLPRPRPRPRKPPRP | 1.65 |
| RRIRMRPPRLPRPRPRPHVYPRP | -0.207 |
| RRIRKRPPRLPRPRPRPSHEPRP | -0.218 |
| RRIRVRPPRLPRPRPRPEKQPRP | 0.101 |
| RRIRHRPPRLPRPRPRPHTIPRP | -0.0571 |
| RRIRSRPPRLPRPRPRPALCPRP | 0.292 |
| RRIRWRPPRLPRPRPRPMINPRP | -0.212 |
| RRIRMRPPRLPRPRPRPYFWPRP | -0.13 |
| RRIRARPPRLPRPRPRPLAEPRP | 0.976 |
| RRIRYRPPRLPRPRPRPSREPRP | -0.0635 |
| RRIRWRPPRLPRPRPRPCILPRP | -0.39 |
| RRIRCRPPRLPRPRPRPSTFPRP | -0.714 |
| RRIRHRPPRLPRPRPRPMESPRP | 0.00489 |
| RRIRQRPPRLPRPRPRPYICPRP | -0.102 |
| RRIRGRPPRLPRPRPRPQISPRP | 0.259 |

| Sequence | shrunken log2 fold change |
| --- | --- |
| RRIRSRPPRLPRPRPRPMYYPRP | -0.468 |
| RRIRHRPPRLPRPRPRPMFWPRP | 0.0114 |
| RRIRYRPPRLPRPRPRPCHTPRP | -0.141 |
| RRIRARPPRLPRPRPRPNFDPRP | 0.281 |
| RRIRERPPRLPRPRPRPQGYPRP | 0.0039 |
| RRIRYRPPRLPRPRPRPEYEPRP | -0.0176 |
| RRIRRRPPRLPRPRPRPFQKPRP | -0.0282 |
| RRIRGRPPRLPRPRPRPSWDPRP | 0.496 |
| RRIRCRPPRLPRPRPRPACNPRP | -0.0286 |
| RRIRYRPPRLPRPRPRPLRAPRP | 0.669 |
| RRIRARPPRLPRPRPRPRAWPRP | 0.699 |
| RRIRLRPPRLPRPRPRPCHYPRP | -0.0212 |
| RRIRGRPPRLPRPRPRPEDYPRP | 0.555 |
| RRIRQRPPRLPRPRPRPMHFPRP | 0.169 |
| RRIRFRPPRLPRPRPRPVEPPRP | -0.228 |
| RRIRERPPRLPRPRPRPRTYPRP | -0.517 |
| RRIRRRPPRLPRPRPRPKYLPRP | -0.042 |
| RRIRQRPPRLPRPRPRPGNYPRP | -0.222 |
| RRIRKRPPRLPRPRPRPPSHPRP | 0.543 |
| RRIRFRPPRLPRPRPRPLIFPRP | -0.666 |
| RRIRFRPPRLPRPRPRPVFLPRP | -0.327 |
| RRIRQRPPRLPRPRPRPKSWPRP | 0.19 |

| Sequence | shrunken log2 fold change |
| --- | --- |
| RRIRWRPPRLPRPRPRPWCKPRP | -0.239 |
| RRIRYRPPRLPRPRPRPSIFPRP | -0.654 |
| RRIRARPPRLPRPRPRPSWLPRP | 0.0254 |
| RRIRQRPPRLPRPRPRPLNIPRP | -0.315 |
| RRIRGRPPRLPRPRPRPCEQPRP | 0.48 |
| RRIRERPPRLPRPRPRPIRVPRP | -0.679 |
| RRIRRRPPRLPRPRPRPWDCPRP | -0.033 |
| RRIRWRPPRLPRPRPRPIGNPRP | 0.137 |
| RRIRNRPPRLPRPRPRPATGPRP | -0.04 |
| RRIRHRPPRLPRPRPRPAASPRP | 0.144 |
| RRIRDRPPRLPRPRPRPQIKPRP | 0.0877 |
| RRIRCRPPRLPRPRPRPDSYPRP | -0.286 |
| RRIRWRPPRLPRPRPRPKLDPRP | 0.206 |
| RRIRQRPPRLPRPRPRPARRPRP | 0.486 |
| RRIRARPPRLPRPRPRPLPYPRP | 0.0356 |
| RRIRHRPPRLPRPRPRPVDPPRP | -0.0989 |
| RRIRWRPPRLPRPRPRPMISPRP | 0.248 |
| RRIRFRPPRLPRPRPRPDHRPRP | 0.0119 |
| RRIRVRPPRLPRPRPRPTHGPRP | -0.235 |
| RRIRARPPRLPRPRPRPFNTPRP | -0.189 |
| RRIRLRPPRLPRPRPRPPFTPRP | 0.11 |
| RRIRYRPPRLPRPRPRPTTDPRP | -0.775 |

| Sequence | shrunken log2 fold change |
| --- | --- |
| RRIRCRPPRLPRPRPRPCGNPRP | -0.278 |
| RRIRDRPPRLPRPRPRPYPRPRP | 0.0039 |
| RRIRARPPRLPRPRPRPNQEPRP | -0.000902 |
| RRIRVRPPRLPRPRPRPQFTPRP | -0.697 |
| RRIRRRPPRLPRPRPRPIVNPRP | -0.205 |
| RRIRARPPRLPRPRPRPAGDPRP | 1.01 |
| RRIRGRPPRLPRPRPRPKHSPRP | 0.209 |
| RRIRDRPPRLPRPRPRPTADPRP | 0.133 |
| RRIRFRPPRLPRPRPRPPPYPRP | 0.445 |
| RRIRARPPRLPRPRPRPHQDPRP | -0.126 |
| RRIRSRPPRLPRPRPRPIDIPRP | -0.3 |
| RRIRWRPPRLPRPRPRPSISPRP | -0.283 |
| RRIRPRPPRLPRPRPRPFKKPRP | -0.161 |
| RRIRNRPPRLPRPRPRPHIDPRP | -0.186 |
| RRIRFRPPRLPRPRPRPMHLPRP | 0.00575 |
| RRIRSRPPRLPRPRPRPEPPPRP | 0.662 |
| RRIRSRPPRLPRPRPRPYVMPRP | -0.653 |
| RRIRSRPPRLPRPRPRPLEAPRP | 0.177 |
| RRIRLRPPRLPRPRPRPGKYPRP | -0.282 |
| RRIRLRPPRLPRPRPRPWWPPRP | 0.0144 |
| RRIRCRPPRLPRPRPRPLGRPRP | -0.151 |
| RRIRQRPPRLPRPRPRPGGAPRP | 0.485 |

| Sequence | shrunken log2 fold change |
| --- | --- |
| RRIRKRPPRLPRPRPRPEKVPRP | 0.112 |
| RRIRRRPPRLPRPRPRPGLMPRP | 0.342 |
| RRIRDRPPRLPRPRPRPPIAPRP | -0.0649 |
| RRIRFRPPRLPRPRPRPQCMPRP | 0.000372 |
| RRIRDRPPRLPRPRPRPDIIPRP | 0.221 |
| RRIRKRPPRLPRPRPRPRIQPRP | 0.475 |
| RRIRARPPRLPRPRPRPYVDPRP | -0.16 |
| RRIRERPPRLPRPRPRPLMWPRP | -0.101 |
| RRIRLRPPRLPRPRPRPHQRPRP | -0.259 |
| RRIRVRPPRLPRPRPRPSRWPRP | 0.278 |
| RRIRTRPPRLPRPRPRPVGQPRP | 0.00905 |
| RRIRDRPPRLPRPRPRPMVTPRP | 0.769 |
| RRIRERPPRLPRPRPRPMHMPRP | -0.000687 |
| RRIRFRPPRLPRPRPRPQSSPRP | 0.0748 |
| RRIRFRPPRLPRPRPRPQLMPRP | -0.32 |
| RRIRFRPPRLPRPRPRPYMYPRP | -0.635 |
| RRIRKRPPRLPRPRPRPEFEPRP | 1.34 |
| RRIRQRPPRLPRPRPRPEYLPRP | -0.00804 |
| RRIRVRPPRLPRPRPRPLQWPRP | 0.209 |
| RRIRVRPPRLPRPRPRPQSRPRP | 0.0616 |
| RRIRMRPPRLPRPRPRPHIDPRP | 0.29 |
